The source of these data is patent publication US20210163590A1 (WUXI BIOLOGICS IRELAND, published 2021).

In assay [1] the target is T1, hTIM-3.ECD.his (human, UniProt Q8TDQ0 22-202).
T1 construct: extracellular domain; also called W340-hPro1.ECD.His; human TIM-3 (SPR analyte); not shown: C-terminal His tag
As to the kind of experiment: SPR Koff ranking; antibody captured on anti-human IgG GLM chip, analyte W340-hPro1.ECD.His.

Assay [2] addresses T1, hTIM-3.ECD.his. As to the kind of experiment: SPR, full kinetics. For orientation: SPR reads the build-up and loss of mass on a sensor chip optically.
Assay [3] deals with T2, human TIM-1 (human, UniProt Q96D42 21-290, limits assumed).
T2 sequence (looked up): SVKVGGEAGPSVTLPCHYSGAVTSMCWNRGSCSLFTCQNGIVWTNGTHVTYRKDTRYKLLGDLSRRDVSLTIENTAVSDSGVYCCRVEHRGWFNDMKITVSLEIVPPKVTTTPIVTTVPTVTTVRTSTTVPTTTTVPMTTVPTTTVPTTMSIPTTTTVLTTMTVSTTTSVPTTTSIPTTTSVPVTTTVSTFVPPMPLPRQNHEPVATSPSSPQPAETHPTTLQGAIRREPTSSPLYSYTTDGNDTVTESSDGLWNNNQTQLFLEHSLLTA
Description: ELISA on plate-coated human TIM-1. On the technique in general: In an ELISA, binding on a coated surface is turned into a signal by an enzyme label.
Description: (§1) The binding of the antibodies to the plates was detected by corresponding HRP-conjugated 2nd antibodies (see FIGS. 3A-3C).

For assay [4], the target named is T3, W340-cynoPro1.ECD.Fc (cynomolgus monkey, UniProt A0A2K5U3G7 22-195).
T3 construct: extracellular domain; also called cynomolgus monkey TIM-3.ECD protein; not shown: C-terminal Fc tag
T3 sequence: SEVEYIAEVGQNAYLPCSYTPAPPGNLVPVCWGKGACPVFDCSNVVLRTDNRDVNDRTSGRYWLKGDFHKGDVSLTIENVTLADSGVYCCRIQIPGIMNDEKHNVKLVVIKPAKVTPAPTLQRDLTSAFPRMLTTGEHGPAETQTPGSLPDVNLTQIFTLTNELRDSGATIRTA
Description: SPR (Biacore 8K); cyno TIM-3 ECD on CM5 chip, antibody as analyte, 1:1 fit.

The target of assay [5] is T4, human TIM-4 (human, UniProt Q96H15 25-314, limits assumed).
T4 sequence (looked up): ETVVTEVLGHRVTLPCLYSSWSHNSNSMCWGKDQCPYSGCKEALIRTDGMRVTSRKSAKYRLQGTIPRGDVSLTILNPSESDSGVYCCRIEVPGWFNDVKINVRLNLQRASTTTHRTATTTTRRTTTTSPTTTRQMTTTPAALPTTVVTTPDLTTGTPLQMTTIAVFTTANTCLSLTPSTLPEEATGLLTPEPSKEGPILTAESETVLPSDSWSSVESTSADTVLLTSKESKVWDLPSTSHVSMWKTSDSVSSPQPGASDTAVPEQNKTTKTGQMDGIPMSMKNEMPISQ
Description: ELISA on plate-coated human TIM-4.
Description: as §1

Assay [6] concerns the target T5, cynomolgus monkey TIM-3 on the cell surface (cynomolgus monkey, UniProt A0A2K5U3G7 22-294).
T5 construct: whole, on cells; also called cyno TIM-3-expressing transfectant cells
T5 sequence: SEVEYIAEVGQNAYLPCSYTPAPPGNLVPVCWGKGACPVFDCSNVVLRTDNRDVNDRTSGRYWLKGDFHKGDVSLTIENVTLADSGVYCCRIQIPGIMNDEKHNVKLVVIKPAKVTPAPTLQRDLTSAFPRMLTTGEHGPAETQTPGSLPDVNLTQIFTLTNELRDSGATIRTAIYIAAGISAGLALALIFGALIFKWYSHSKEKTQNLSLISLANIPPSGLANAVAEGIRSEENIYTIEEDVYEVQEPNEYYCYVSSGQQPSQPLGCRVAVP
Description: flow cytometry on cyno TIM-3-expressing transfectant cells. In general terms: A flow cytometer gives signals particle by particle.
Description: Cross species binding (FACS): the binding of TIM-3 antibodies to cynomolgus monkey TIM-3 was determined by FACS. […] MFI of the cells was measured by a flow cytometer and analyzed by FlowJo.

B1: chimeric W3402-x (antibody, human IgG4, V domains shown)
VH: QVQLKESGPGLVQSSQTLSLTCTVSGFSLTNYGVGWIRQPPGKGLEWIAIMTSGGSTYYNSALRARLNINRDTSKSQVFLEVNSLHTEDTATYFCTRDGTTVETLFDYWGQGLMVTVSS
VL: DVVLTQTPSTLSAIIGQSVSISCRSSQSLSDSAGITYLYWYLQRPGQSPQLLIYLASNLGSGVPNRFSGSGSGTDFTLKISGVEPEDLGVYHCMQGIHVPLTFGSGTKLEIK
notes: also called parental chimeric W3402-x; Parental xAb
For orientation: koff means the rate constant with which the complex falls apart. One may read the Kd as the constant that tells how readily two partners part at equilibrium. For orientation: kon means the rate constant with which the complex forms. B1 gave a koff in assay [1] of 1.95e-06 s⁻¹. In assay [2], the Kd is 0.00937 nM, the koff worked out at 2.12e-05 s⁻¹ and the kon was 2.26e+06 M⁻¹ s⁻¹.

B2: W3402-2.131.17-z3 (antibody, IgG4, V domains shown)
VH: QVQLQESGPGLVKPSETLSLTCTVSGFSLTNYGVGWIRQPPGKGLEWIGIMTSGGSTYYNSALRARVTINRDTSKNQFSLKLSSVTAADTAVYYCTRDGTTVETLFDYWGQGTMVTVSS
VL: DIVMTQTPLSLSVTPGQPASISCRSSQSLSDSAGITYLYWYLQKPGQSPQLLIYLASNLGSGVPDRFSGSGSGTDFTLKISRVEAEDVGVYYCMQGIHVPLTFGQGTKLEIK
notes: Humanized monoclonal antibody with a kappa light chain; also called W3402-z3; humanized variant W3402-z3
Broadly, the EC50 is the concentration needed to bring the measured effect to its halfway point. Turning to B2, the binding result in assay [3] and in assay [5] was “no binding (tested: 66.7 nM)” throughout. In assay [4], this molecule registered a Kd of 0.0209 nM. For the same molecule, a half-maximal effect in assay [6] (EC50) was put at 0.32 nM.
